Measurements reported in US20250064956A1, “METHODS FOR TREATING MUSCLE INVASIVE UROTHELIAL CANCER OR MUSCLE INVASIVE BLADDER CANCER WITH ANTIBODY DRUG CONJUGATES (ADC) THAT BIND TO 191P4D12 PROTEINS” (AGENSYS, INC., priority 2022, published 2025).

Tests used:
[1] = system: acute myeloid leukemia (AML) at relapse; conditions: administered alone; cited from earlier work
[2] = system: cisplatin-ineligible patients with T2 T4N0M0 MIBC; conditions: cited from earlier work
[3] = system: patients receiving enfortumab vedotin; assay: Reports of severe cutaneous adverse reactions in patients receiving enfortumab vedotin; assay type: in vivo, human
Text: These reactions occurred predominantly during the first cycle of treatment. AEs reported in these cases included Stevens-Johnson Syndrome (SJS) (5 cases), blister (3 cases), dermatitis bullous (3 cases), symmetrical drug-related intertriginous and flexural exanthema (SDRIFE; 2 cases), and 1 case each of dermatitis exfoliative, exfoliative rash, epidermal necrosis, oropharyngeal blistering, stomatitis, and toxic epidermal necrolysis (TEN).

[4] = system: urothelial carcinoma subjects; assay: Enfortumab vedotin monotherapy studies of urothelial carcinoma, SAEs of severe cutaneous adverse reactions; assay type: in vivo, human
[5] = system: cisplatin-ineligible patients with muscle invasive bladder cancer (MIBC); assay: Phase 1b/2 study (Cohort H): neoadjuvant EV monotherapy followed by RC+PLND, antitumor activity (pCR, pDS, EFS); assay type: in vivo, human
Procedure: Treatment with enfortumab vedotin monotherapy is evaluated in patients with MIBC. This study enrolls approximately 20 patients with cT2-T4aN0M0 MIBC.
pCR is the primary endpoint and is defined as the absence of viable tumor (pT0N0) in examined tissue from RC+PLND. pCR is assessed by central pathology review after RC+PLND with curative intent. Post-RC restaging is performed via the same radiologic modalities at the first follow-up disease assessment scan (12 weeks after RC+PLND). During the first 2 years on study, follow-up is performed every 12 weeks (±14 days) from RC+PLND until disease progression/recurrence, patient death study closure, or withdrawal of consent, whichever occurs first. After 2 years on study, the frequency of visits including response assessments is reduced to every 24 weeks (±14 days). Tumor imaging should also be performed whenever disease progression is suspected.
Radiographic disease progression precluding a curative intent surgery noted prior to RC+PLND, failure to undergo RC+PLND for patients with residual muscle invasive disease and/or any radiographic disease present, gross residual disease left behind at time of RC+PLND, local or distant recurrence post-RC as assessed radiographically and/or confirmed with biopsy (local pathology review), or death from any cause are considered EFS events. Patients who are found to have EFS events but are still alive are to transition into long-term follow-up.
Tumor tissue samples collected from the patient's diagnostic TURBT within 90 days prior to the first dose of study treatment are sent for central pathology review. Tissue samples from RC+PLND will also be sent for central pathology review of pathologic response assessment. Tumor response is assessed after RC+PLND with curative intent by pathology review analysis. Pathologic staging information includes TNM classification, histology, lymph node counts, and surgical margins.
The pCRR is defined as the proportion of patients having pCR. pCR is defined as the absence of viable tumor (pT0N0) in examined tissue from RC+PLND.
pDSR is defined as the proportion of patients having pDS. pDS is defined as patients with <pT2 (includes pT0, pTis, pTa, pT1) and N0 in examined tissue from RC+PLND.
EFS is defined as the time from the start of study treatment to the first occurrence of any of the following events: • Radiographic disease progression precluding a curative intent surgery prior to RC+PLND • Failure to undergo RC+PLND for participants with residual muscle-invasive disease and/or any radiographic disease present • Gross residual disease left behind at time of RC+PLND (surgeon unable to complete curative intent surgery due to unresectable tumor or newly discovered metastatic disease) • Local or distant recurrence post-RC as assessed by CT or MRI and/or biopsy. If biopsy is not feasible due to participant safety, CT/MRI alone is sufficient • Death from any cause
Patients who refuse surgery but without a post-screening scan are censored at study day 1.
(§1) The methods for this Section 6.2 (Example 2) were as described in Section 6.1 (Example 1). […] Patients received 3 cycles of neoadjuvant EV (1.25 mg/kg) on Days 1 and 8 of every 3-week cycle prior to RC+PLND. The primary endpoint of the study was pathological complete response rate (pCRR; ypT0N0) by central review. Key secondary endpoints included pathological downstaging (pDS) rate (yp T0, Tis, Ta, T1,N0) and safety.

[6] = system: cisplatin-ineligible patients with muscle invasive bladder cancer (MIBC); assay: Phase 1b/2 study (Cohort H): safety, tolerability, exposure and disposition with neoadjuvant EV monotherapy and RC+PLND; assay type: in vivo, human
Text: Safety assessments are based on the information collected through the safety surveillance process and will include the data from recorded AEs, including serious adverse events (SAEs), concomitant medications, physical examination findings, cardiac monitoring, and laboratory tests. Safety is monitored over the course of the study by the SMC.
The safety analysis evaluates the type, incidence, severity, seriousness, and relatedness of AEs, and the type, incidence, and severity of laboratory abnormalities. The incidence, duration, and resolution of AEs of special interest (AESIs) are summarized.
The assessment of safety during the course of this study will consist of the surveillance and recording of AEs including SAEs, recording of concomitant medication, and measurements of protocol-specified physical examination findings, cardiac monitoring, and laboratory tests.
AE severity should be graded using the National Cancer Institute's Common Terminology Criteria for Adverse Events (NCI CTCAE), Version 4.03.
An overview of AEs provide a tabulation, by cohort and overall, of the incidence of all AEs, TEAEs, treatment-related AEs, Grade 3 and higher AEs, SAEs, treatment-related SAEs, deaths, and AEs leading to study treatment discontinuation. AEs are defined as treatment emergent if they are newly occurring or worsen following study treatment.
AEs are listed and summarized by Medical Dictionary for Regulatory Activities (MedDRA), preferred term, severity, and relationship to study drug. In the event of multiple occurrences of the same AE with the same preferred term in 1 patient, the AE are counted once as the occurrence. The incidence of AEs are tabulated by preferred term and cohorts. AEs leading to premature discontinuation of study drug are summarized and listed in the same manner.
as §1

[7] = system: patients with T2 T3bN0M0 MIBC; conditions: cited from earlier work
[8] = 2 cycles of 1200 mg prior to RC, 69 patients
[9] = 2 cycles of 1200 mg prior to RC
[10] = EFS by investigator assessment, EV Mono N = 22
[11] = Present study, cisplatin ineligible, EV monotherapy x 3 cycles, sample size 22
[12] = by investigator assessment, N = 22

Substance: CT-011
- response in treating acute myeloid leukemia (AML) at relapse [1]: failed to show response

Substance: atezolizumab
- pCR, patients [2, 8]: 29%
- safety findings [2, 8]: no significant safety findings
- pCR, PD-L1-negative cohort [2, 9]: 16%
- pCR, patients with PD-L1-positive disease [2, 9]: 40%
- patients down staged to non-muscle invasive disease [2, 9]: 39%
- PCR (no viable tumor at surgery), ypT0 + ypTis ([2]; ABACUS, cisplatin ineligible, Atezolizumab x 2, sample size 88): 31% (ypT0 +

Substance: enfortumab vedotin
- severe cutaneous adverse reaction reports: SDRIFE ([3]; 15 patients): 2 cases
- severe cutaneous adverse reaction reports: Stevens-Johnson Syndrome (SJS) ([3]; 15 patients): 5 cases
- severe cutaneous adverse reaction reports: blister ([3]; 15 patients): 3 cases
- severe cutaneous adverse reaction reports: dermatitis bullous ([3]; 15 patients): 3 cases
- severe cutaneous adverse reaction reports: dermatitis exfoliative ([3]; 15 patients): 1 case
- severe cutaneous adverse reaction reports: epidermal necrosis ([3]; 15 patients): 1 case
- severe cutaneous adverse reaction reports: exfoliative rash ([3]; 15 patients): 1 case
- severe cutaneous adverse reaction reports: oropharyngeal blistering ([3]; 15 patients): 1 case
- severe cutaneous adverse reaction reports: stomatitis ([3]; 15 patients): 1 case
- severe cutaneous adverse reaction reports: toxic epidermal necrolysis (TEN) ([3]; 15 patients): 1 case
- patients with reports of severe cutaneous adverse reactions ([3]; some had fatal outcomes, predominantly during the first cycle): 15 patients
- SAE of severe cutaneous adverse reaction: SJS ([4]; 749 subjects): 0.1%
- SAE of severe cutaneous adverse reaction: blister ([4]; 749 subjects): 0.1%
- SAE of severe cutaneous adverse reaction: conjunctivitis ([4]; 749 subjects): 0.1%
- SAE of severe cutaneous adverse reaction: dermatitis bullous ([4]; 749 subjects): 0.4%
- SAE of severe cutaneous adverse reaction: drug eruption ([4]; 749 subjects): 0.4%
- SAE of severe cutaneous adverse reaction: stomatitis ([4]; 749 subjects): 0.1%
- SAE of severe cutaneous adverse reaction: toxic skin eruption ([4]; 749 subjects): 0.1%
- SAEs of severe cutaneous adverse reactions ([4]; 749 subjects): 1.5%
- SAEs of severe cutaneous adverse reactions ([4]; of 749 subjects, EV monotherapy studies of urothelial carcinoma): 11 subjects

Substance: enfortumab vedotin [EV Mono]
- pathological complete response (pCR), patients ([5]; 3 cycles neoadjuvant EV 1.25 mg/kg Days 1 and 8 of 3-week cycle, preliminary analysis of 22 patients): 36%
- Number of subjects who have recurrence or died [5, 10]: 5
- Subjects who have recurrence or died, figure in parentheses (share of N = 22) [5, 10]: (22.7)
- PCR (no viable tumor at surgery), ypT0 and ypTis [5, 11]: 45.5% (ypT0
- PCR (no viable tumor at surgery), ypT0 only [5, 11]: 32% (ypT0
- pDS (non-muscle invasive disease at surgery), includes pCR [5, 11]: 50% (includes
- EFS Rate at 6 months [5, 12]: 88.2%
- Event free-survival (EFS), 25th percentile [5, 12]: 6.7, — months
- Event free-survival (EFS), median [5, 12]: not reached
- Event free-survival (EFS), observed min [5, 12]: 2.60 months
- Event free-survival (EFS), observed max ([5]; by investigator assessment, N = 22, + printed after value): ≥ 12.32 months
- EFS Rate at 12 months ([5]; by investigator assessment, N = 22, one subject censored at study day 190 due to a data issue): 60.5%
- pCRR compared with rates seen with chemotherapy in cisplatin-eligible MIUC patients ([5]; cisplatin-ineligible MIBC patients, neoadjuvant EV): compares favorably
- AECI Any infusion related reactions, ≥Grade 3 ([6]; EV Mono N = 22): 0 n
- AECI Any ocular disorder: Blurred vision, ≥Grade 3 ([6]; EV Mono N = 22): 0 n
- AECI Any ocular disorder: Corneal disorders, Any Grade ([6]; EV Mono N = 22): 0 n
- AECI Any ocular disorder: Corneal disorders, ≥Grade 3 ([6]; EV Mono N = 22): 0 n
- AECI Any ocular disorder: Dry eye, ≥Grade 3 ([6]; EV Mono N = 22): 0 n
- AECI Any peripheral neuropathy, ≥Grade 3 ([6]; EV Mono N = 22): 0 n
- Any TEAEs leading to bladder surgery not performed ([6]; EV Mono N = 22): 0 n
- EV-related TEAEs leading to bladder surgery not performed ([6]; EV Mono N = 22): 0 n
- EV-related TEAEs leading to death ([6]; EV Mono N = 22): 0 n
- RC-related TEAEs leading to death ([6]; EV Mono N = 22): 0 n
- TEAE (Table 27) Hyperglycaemia ([6]; EV Mono N = 22, listed as EV): 13.6%
- TEAE (Table 27) Small intestinal obstruction ([6]; EV Mono N = 22, listed as EV): 9.1%
- TEAE (Table 27) Urinary tract infection ([6]; EV Mono N = 22, listed as EV): 9.1%
- patients with Grade 3 or higher TEAEs ([6]; EV monotherapy and RC+PLND): 59.1%
- tolerability of 3 cycles of neoadjuvant treatment ([6]; cisplatin-ineligible MIBC patients): well-tolerated
- Grade 5 AE Acute Kidney Injury: Days from RC + PLND ([6]; in vivo): 62 days
- Grade 5 AE Acute Kidney Injury: Days from last dose of EV ([6]; in vivo): 142 days
- Grade 5 AE Cardiac Arrest: Days from RC + PLND ([6]; in vivo): 15 days
- Grade 5 AE Cardiac Arrest: Days from last dose of EV ([6]; in vivo): 45 days
- Grade 5 AE Saddle PE: Days from RC + PLND ([6]; in vivo): 55 days
- Grade 5 AE Saddle PE: Days from last dose of EV ([6]; in vivo): 127 days
- patients whose grade 5 AEs occurred >30 days after the end of study treatment ([6]; in vivo): 2 pts
- patients with grade 5 adverse events while on the study ([6]; in vivo): 3 patients
- observed safety profile of neoadjuvant EV monotherapy ([6]; patients in this study): consistent with the known safety profile of EV
- Rash maculo-papular leading to EV discontinuation: AE onset after last EV dose ([6]; subject completed Cycle 2, Gr3): ^cSubject completed Cycle 2. AE onset occurred 4 days after last EV dose. (Gr3)

Substance: pembrolizumab
- pCR rate ([7]; 3 cycles of 200 mg before RC, among 50 treated patients): 42%
- pCR rate in patients with PD L1 positive disease ([7]; 3 cycles of 200 mg before RC): 54.3%
- pathologic downstaging rate ([7]; 3 cycles of 200 mg before RC): 65.7%
- safety of neoadjuvant administration ([7]; 3 cycles of 200 mg before RC): safely administered
- pDS (non-muscle invasive disease at surgery), includes pCR ([7]; PURE-01, Pembrolizumab x 3, sample size 50): 54% (includes
- PCR (no viable tumor at surgery) ([7]; PURE-01, cisplatin eligible (n = 42) and ineligible (n = 8), Pembrolizumab x 3, sample size 50): 42%
